The test deals with Nucleosome: Xenopus laevis histone octamer with Cy3-labeled H2A T120C on Widom 601 DNA (Xenopus laevis). Kind of test: single-molecule fluorescence co-localisation with photobleaching step counting.

In turn, “Alexa647-labeled Chd1p (from UniProt P32657 1-1468) (enzyme)” displayed a fraction of nucleosomes with one Chd1p of 47.8%, a fraction of nucleosomes with three Chd1ps of 21.7% and a fraction of nucleosomes with two Chd1ps of 30.4%.

The values are drawn from paper doi:10.1101/376806.
